Biological target: T1, HisMBP-CDX2ΔCTD R214N (UniProt Q99626 1-245, R214N)
T1 sequence: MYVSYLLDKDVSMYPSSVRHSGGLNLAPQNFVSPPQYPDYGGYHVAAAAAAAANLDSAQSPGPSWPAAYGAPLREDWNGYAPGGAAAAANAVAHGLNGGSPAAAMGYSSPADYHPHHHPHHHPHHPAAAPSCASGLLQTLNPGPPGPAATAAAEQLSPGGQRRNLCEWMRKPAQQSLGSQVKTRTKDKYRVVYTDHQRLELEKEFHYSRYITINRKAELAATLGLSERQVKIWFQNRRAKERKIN
Assay: EMSA

B1: TP5921/TP5922 CDX2 consensus site duplex (dsDNA)
DNA 1: TAATCTCTCTGTTTATAGCTCTGACCT
DNA 2: AGGTCAGAGCTATAAACAGAGAGATTA
Q: Does B1 bind?
A: Result: no binding

From publication PMC6127865
